T1: hTNFR2 protein (coated on the microplate in the blocking ELISA) (human, UniProt P20333 23-257)
T1 construct: The construct coated in the ELISA is not described (it may or may not be the immunogen, Sino biological 10417-H03H)
T1 sequence (looked up): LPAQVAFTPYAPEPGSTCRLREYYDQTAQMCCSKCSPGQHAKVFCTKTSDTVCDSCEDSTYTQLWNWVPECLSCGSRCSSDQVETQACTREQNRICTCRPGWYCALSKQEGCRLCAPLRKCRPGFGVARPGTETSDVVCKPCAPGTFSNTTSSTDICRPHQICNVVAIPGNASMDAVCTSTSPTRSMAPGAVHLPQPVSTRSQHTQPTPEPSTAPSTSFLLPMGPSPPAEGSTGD

T2: human TNFR2 overexpressed on CHO-S cells (CHOS-hTNFR2) (human, UniProt P20333 23-461)
T2 construct: also called hTNFR2 CHO-S; human TNFR2 molecule overexpressed on CHO-S cells
T2 sequence: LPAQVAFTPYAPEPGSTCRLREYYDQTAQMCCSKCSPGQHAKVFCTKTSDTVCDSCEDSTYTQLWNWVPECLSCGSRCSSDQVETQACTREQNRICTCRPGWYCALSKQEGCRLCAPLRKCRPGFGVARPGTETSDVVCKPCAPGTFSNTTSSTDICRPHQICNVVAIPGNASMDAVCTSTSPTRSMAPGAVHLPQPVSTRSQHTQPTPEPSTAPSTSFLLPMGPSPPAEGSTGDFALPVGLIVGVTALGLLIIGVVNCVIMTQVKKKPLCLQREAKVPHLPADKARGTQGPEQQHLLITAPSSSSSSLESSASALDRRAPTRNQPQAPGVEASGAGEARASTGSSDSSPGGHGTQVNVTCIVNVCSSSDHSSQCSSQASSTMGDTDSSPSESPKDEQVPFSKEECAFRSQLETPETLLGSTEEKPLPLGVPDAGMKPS

T3: cynomolgus monkey TNFR2 overexpressed on CHO-S cells (CHOS-cTNFR2) (cynomolgus monkey, UniProt P20333 23-461 (human entry))
T3 construct: also called cTNFR2 CHO-S
T3 chain: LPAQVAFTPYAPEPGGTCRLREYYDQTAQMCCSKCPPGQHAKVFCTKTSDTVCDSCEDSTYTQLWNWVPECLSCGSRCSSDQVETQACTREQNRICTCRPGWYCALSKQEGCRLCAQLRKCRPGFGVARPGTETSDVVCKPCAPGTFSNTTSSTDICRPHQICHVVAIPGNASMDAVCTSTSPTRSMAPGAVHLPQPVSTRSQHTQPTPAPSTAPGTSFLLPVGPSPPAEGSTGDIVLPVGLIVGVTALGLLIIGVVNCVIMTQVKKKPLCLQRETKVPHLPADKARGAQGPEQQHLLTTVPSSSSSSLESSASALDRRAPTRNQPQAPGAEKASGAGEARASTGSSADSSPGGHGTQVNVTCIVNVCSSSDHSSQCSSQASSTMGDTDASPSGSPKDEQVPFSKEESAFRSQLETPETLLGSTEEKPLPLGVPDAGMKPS

B1: positive control antibody OPI (humanized antibody SBT-002e in WO 2017083525) (antibody, V domains shown)
VH: QVTLKESGPALVKPTQTLTLTCTFSGFSLSTSGMGVGWIRQPPGKALEWLAHIWWDDDKFYNPSLKSRLTISKDTSKNQVVLTMTNMDPVDTATYYCARLTGTRYFDYWGQGTTVTVSS
VL: DVQMTQSPSSLSASVGDRVTITCKASQDINKFIAWYQQKPGKAPKLLIHYTSTLQPGIPSRFSGSGSGRDYTFTISSLQPEDIATYYCLQYGNLWTFGGGTKVEIK
notes: also called Benchmark OPI
B2: chimeric antibody 3C4 (antibody, human IgG1, kappa, V domains shown)
VH: QVQLQQSGPELVKPGASVTISCKASDYSFTNYYIHWVKQRPGQGLEWIGWIYPGNVITKYHEKFKGKAILTADTSSTTAYMQLNSLTSEDSAVYFCARSRATGYFDYWGQGTTLTVSS
VL: DIQMTQTTSSLSASLGDRVTISCRASQDIRNYLNWFQQKPDGTIKLLIYYTSRLHSGVPSRFSGSGSGTDYSLTISNLEQEDMATYFCQQFNTLPWTFGGGTKLEIKR
B3: chimeric antibody 69B1 (antibody, human IgG1, kappa, V domains shown)
VH: QIQLVQSGPELKKPGETVKISCKASGYTFTDYSMNWVKQAPGKGLKWMGWLNTETGEPIYADDFKGRFVFSLETSASTAYLEINNLNDEDTATYFCAREAIYYGTSYVLDYWGQGTSVTVSS
VL: DIVLTQSPASLAVSLGQRATISCRASESVEYYGTNFMQWYQQKPGQPPKLLIYSASNVESGVPARFSGSGSGTDFSLNIHPVEEDDIAVYFCQQSRKDPSTFGEGTNLEIKR

Columns and labels:
[1] = target: T1, hTNFR2 protein (coated on the …); experiment: blocking ELISA: hTNFR2 coated on the plate, binding of biotinylated TNFα blocked by the antibody, Avidin-HRP
Procedure: The ability of the hybridoma antibodies 3C4, 69B1, and 72G8 and the control antibody OPI to block the binding of human TNFα to hTNFR2 was assayed by ELISA.
The hTNFR2 protein was resuspended and dissolved to a concentration of 2 μg/mL with PBS, and a microplate was coated with the protein and incubated overnight. The plate was blocked with 5% BSA for 1 h, and a biotinylated antigen (Recombinant Biotinylated TNFα protein (ACRO)) was diluted to 3 μg/mL and added to the plate at 20 μL/well. The antibodies prepared as described above (3C4, 69B1, and 72G8) were each diluted in a gradient starting from the maximum concentration of 300 nM for a total of 8 or 12 dilution gradients. The diluted antibodies were added at 200 μL/well and incubated in PBS on ice for 30 min. The antigen-antibody mixture was incubated in a microplate for 90 min and washed three times with PBS, and the supernatant was discarded. 100 μL of Avidin-HRP (Invitrogen) diluted at a 1:5000 ratio was added to each well, incubated at room temperature for 30 min, and washed six times with PBS. A TMB chromogenic solution (solarbio) was added to the plate at 100 μL/well for color development for 1 min, and the reaction was stopped by adding a stop buffer (solarbio) at 100 μL/well. The plate was read on a microplate reader at OD₄₅₀ and OD₆₂₀.

[2] = target: T2, human TNFR2 overexpressed on CHO-S …; experiment: flow cytometry on CHO-S cells overexpressing human TNFR2 (chimeric antibodies), MFI-FL2-A; unit taken from the axis Conc log(nM)
Procedure: (§1) In the study, the binding of the chimeric antibodies of the present invention, after being diluted in a gradient, to a stable CHO-S cell strain overexpressing human TNFR2 on the surface was assayed by using a flow cytometer. cDNAs encoding human TNFR2 (SEQ ID NO: 60) and cynomolgus monkey TNFR2 (SEQ ID NO: 61) were cloned into pCH01.0 vectors (Invitrogen), which were transfected into CHO-S cells (Invitrogen) to produce CHO-S cells overexpressing human TNFR2 (CHOS-hTNFR2) and CHO-S cells overexpressing cynomolgus monkey TNFR2 (CHOS-cTNFR2).
(§2) CHOS-hTNFR2 cells or CHOS-cTNFR2 cells were counted and diluted to 2×10⁶ cells/mL, and added to a U-bottom 96-well plate at 100 μL/well. The mixture was centrifuged at 300 g for 5 min, and the cell medium was removed. The dilutions of the samples (the chimeric antibodies 3C4, 69B1, and 72G8 and the positive control antibody OPI) (the antibodies were subjected to a three-fold serial dilution in PBS from the maximum antibody concentration of 300 nM) were added to the U-plate, and the cells were resuspended at 100 μL/well and left to stand on ice for 30 min. The suspension was centrifuged at 400 g for 5 min, and the supernatant was removed. The cells were washed twice with PBS. The mixture was centrifuged at 300 g for 5 min, and PBS was removed. […]

[3] = target: T3, cynomolgus monkey TNFR2 overexpressed …; experiment: flow cytometry on CHO-S cells overexpressing cynomolgus monkey TNFR2 (chimeric antibodies), MFI-FL2-A; unit taken from the axis Conc log(nM)
Procedure: as §1, §2

Binder	IC50 (read off the curve) [1] [nM]	EC50 [2] [nM]	EC50 [3] [nM]
B1	~6		
B2		2	0.355
B3		3.14	0.324

From patent US20240026019A1 (Innovent, published 2024)
